From the supplement of paper PMC10126150
± gives the standard deviation of the averaged measurements.

Tested on: ATP
Test: switch fluorescence ratio, 500 uM ATP over buffer (Cy3 cluster intensity, sum of 5 cycles each) (fold (ratio)); higher = stronger signal-on switching upon ATP binding; sequences stand for … in TCGTCGGCAGCGTCAGATGTGTATAAGAGACAGTTTTTTTTTTTTTTTTTTTTTTTTT…TC
Settings: aptamer strand: ATP DNA aptamer (quencher-CACCTGGGGGAGTATTGCGGAGGAAGG + anchor), 100 nM annealed; ATP concentration: 500 uM
Outline: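 Cy3-labelled switching-strand clusters on a modified Illumina MiSeq flow-cell were annealed to 100 nM quencher-labelled ATP aptamer, imaged in selection buffer, then imaged after 15 min with 500 uM ATP at 22 °C. Five buffer/ATP cycles ran, with NaOH stripping and re-annealing between them. The fluorescence ratio is summed target-cycle over summed buffer-cycle Cy3 intensity per cluster, averaged per switch-domain sequence. Clusters outside 100-1000 RFU were excluded.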
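Also: ATP exposure 15 min at 22 °C before imaging.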

| Sequence | switch fluorescence ratio |
| --- | --- |
| AGGAGGAGGC | 0.789 ± 0.23 |
| AGGAGGCGAG | 0.9905 ± 0.0088 |
| AGGAGGGATG | 0.985 ± 0.022 |
| AGGAGGGGGG | 1.01 ± 0.039 |
| AGGAGGGGGT | 0.991 ± 0.033 |
| AGGAGGTTAT | 1.01 ± 0.013 |
| AGGAGTACGT | 0.988 ± 0.013 |
| AGGAGTACTT | 1.02 ± 0.019 |
| AGGAGTGGTA | 0.999 ± 0.013 |
| AGGAGTTTAG | 0.9867 ± 0.0093 |
| AGGATAACCC | 1.018 ± 0.0064 |
| AGGATAGTTG | 0.982 ± 0.038 |
| AGGATCAACG | 0.984 ± 0.034 |
| AGGATCGGTA | 0.987 ± 0.022 |
| AGGATCTTGT | 0.9943 ± 0.0016 |
| AGGATGCAGA | 1.01 ± 0.024 |
| AGGATGGGG | 0.9741 ± 0.0069 |
| AGGATGGGTG | 0.991 ± 0.021 |
| AGGATGGTTG | 1 ± 0.021 |
| AGGATGTGCT | 0.9655 ± 0.006 |
| AGGATTATGT | 1.01 ± 0.035 |
| AGGATTGGGT | 0.99 ± 0.017 |
| AGGATTTGAG | 1 ± 0.013 |

| Sequence | switch fluorescence ratio |
| --- | --- |
| AGGATTTGGT | 0.984 ± 0.031 |
| AGGATTTTAG | 1.002 ± 0.0049 |
| AGGATTTTTG | 1.02 ± 0.021 |
| AGGCAAAGCA | 1.05 ± 0.073 |
| AGGCAAAGGC | 1.06 ± 0.036 |
| AGGCAGACCG | 1.03 ± 0.07 |
| AGGCAGATGG | 0.998 ± 0.021 |
| AGGCAGTGGG | 0.998 ± 0.028 |
| AGGCATCAAC | 1.02 ± 0.013 |
| AGGCATGCTG | 0.98 ± 0.062 |
| AGGCCCCCGA | 1.02 ± 0.066 |
| AGGCCGAGTC | 1.02 ± 0.054 |
| AGGCCGGGTG | 1.35 ± 0.052 |
| AGGCCGTGGC | 0.968 ± 0.035 |
| AGGCCTAACG | 0.995 ± 0.01 |
| AGGCCTCGCA | 1.03 ± 0.039 |
| AGGCCTGGG | 1 ± 0.016 |
| AGGCCTTCGA | 1.003 ± 0.0083 |
| AGGCGCAATT | 1.81 ± 0.94 |
| AGGCGCAGGG | 0.9982 ± 0.0089 |
| AGGCGCGCGG | 0.9507 ± 0.0057 |
| AGGCGCTAT | 1.04 ± 0.021 |
| AGGCGGATGG | 0.9853 ± 0.0062 |

| Sequence | switch fluorescence ratio |
| --- | --- |
| AGGCGGCAGC | 0.982 ± 0.02 |
| AGGCGGCCTG | 0.982 ± 0.016 |
| AGGCGGCTTC | 1.03 ± 0.014 |
| AGGCGGGGTA | 0.9847 ± 0.0089 |
| AGGCGGTGCG | 1.02 ± 0.03 |
| AGGCGGTGGC | 1.02 ± 0.11 |
| AGGCGTGAGG | 1.01 ± 0.049 |
| AGGCTAAAG | 0.974 ± 0.01 |
| AGGCTATCCC | 0.992 ± 0.033 |
| AGGCTCACAA | 1.07 ± 0.03 |
| AGGCTCCGAG | 1.03 ± 0.011 |
| AGGCTCCTCG | 1.039 ± 4.4e-05 |
| AGGCTCTTTG | 1.01 ± 0.04 |
| AGGCTGAGCG | 1.01 ± 0.022 |
| AGGCTGTTCT | 0.991 ± 0.059 |
| AGGCTTGCGC | 1.01 ± 0.037 |
| AGGCTTTCCT | 1.05 ± 0.04 |
| AGGCTTTTAT | 1.005 ± 0.0078 |
| AGGGAAAAAT | 1.06 ± 0.082 |
| AGGGAAACTA | 0.999 ± 0.013 |
| AGGGAAAGGG | 1.02 ± 0.02 |
| AGGGAAATAA | 0.987 ± 0.026 |
| AGGGAACCCT | 1.13 ± 0.03 |

| Sequence | switch fluorescence ratio |
| --- | --- |
| AGGGAAGGAA | 1.01 ± 0.037 |
| AGGGAAGGAC | 1.03 ± 0.029 |
| AGGGAAGTCG | 0.9751 ± 0.0093 |
| AGGGAAGTTA | 1.01 ± 0.014 |
| AGGGACAAGG | 1.014 ± 0.0095 |
| AGGGACGTTC | 0.967 ± 0.024 |
| AGGGACTAGA | 1 ± 0.025 |
| AGGGACTGAC | 1.24 ± 0.075 |
| AGGGACTGTG | 1.01 ± 0.073 |
| AGGGACTTTA | 1.0332 ± 0.00011 |
| AGGGAGAAAC | 0.984 ± 0.028 |
| AGGGAGAAGA | 1.005 ± 0.0077 |
| AGGGAGAGAG | 0.997 ± 0.022 |
| AGGGAGAGCC | 0.9957 ± 0.0041 |
| AGGGAGATAA | 1.14 ± 0.17 |
| AGGGAGCTGG | 0.998 ± 0.013 |
| AGGGAGGGGG | 1.01 ± 0.094 |
| AGGGAGGGTG | 1.02 ± 0.066 |
| AGGGAGGTTG | 1.01 ± 0.013 |
| AGGGAGTAGG | 1.12 ± 0.029 |
| AGGGATAAAT | 1.01 ± 0.055 |
| AGGGATAGAT | 0.99 ± 0.026 |
| AGGGATGGTT | 0.982 ± 0.013 |

| Sequence | switch fluorescence ratio |
| --- | --- |
| AGGGATGTCT | 1.02 ± 0.043 |
| AGGGATGTTA | 0.991 ± 0.014 |
| AGGGATGTTG | 0.995 ± 0.013 |
| AGGGATTACG | 1.01 ± 0.038 |
| AGGGATTAGG | 0.99 ± 0.034 |
| AGGGATTAGT | 0.991 ± 0.022 |
| AGGGATTGCG | 0.9971 ± 0.0093 |
| AGGGATTGGT | 0.952 ± 0.019 |
| AGGGCAATAT | 3.84 ± 0.48 |
| AGGGCACGGT | 0.983 ± 0.036 |
| AGGGCAGTTG | 0.97 ± 0.024 |
| AGGGCATTCA | 1.02 ± 0.046 |
| AGGGCCTCTT | 0.986 ± 0.028 |
| AGGGCGCTAT | 1.05 ± 0.042 |
| AGGGCGGCTT | 1 ± 0.032 |
| AGGGCGTACA | 0.992 ± 0.01 |
| AGGGCTAAGG | 0.9995 ± 0.0034 |
| AGGGCTAATA | 1.009 ± 0.0081 |
| AGGGCTGTGT | 0.999 ± 0.046 |
| AGGGGACGGC | 1.04 ± 0.0085 |
| AGGGGAGAGA | 1.04 ± 0.014 |
| AGGGGAGTAG | 0.99 ± 0.022 |
| AGGGGATGCT | 1.01 ± 0.016 |

| Sequence | switch fluorescence ratio |
| --- | --- |
| AGGGGATTTG | 0.999 ± 0.03 |
| AGGGGCAACT | 1 ± 0.048 |
| AGGGGCGCCG | 1 ± 0.06 |
| AGGGGCGGTC | 1.03 ± 0.014 |
| AGGGGCGTGG | 1.01 ± 0.046 |
| AGGGGCTATA | 0.9703 ± 0.0061 |
| AGGGGCTCCG | 1.02 ± 0.036 |
| AGGGGGCATG | 0.986 ± 0.023 |
| AGGGGGCGAG | 0.988 ± 0.018 |
| AGGGGGCGCA | 0.991 ± 0.051 |
| AGGGGGCGCT | 1.01 ± 0.043 |
| AGGGGGCGTC | 1.022 ± 0.0093 |
| AGGGGGCTTT | 0.985 ± 0.021 |
| AGGGGGGAC | 0.9875 ± 0.0048 |
| AGGGGGGAGA | 0.994 ± 0.026 |
| AGGGGGGCCT | 0.989 ± 0.087 |
| AGGGGGGCGC | 0.993 ± 0.033 |
| AGGGGGGCTA | 0.991 ± 0.038 |
| AGGGGGGGAG | 1.01 ± 0.053 |
| AGGGGGGGGC | 1.04 ± 0.13 |
| AGGGGGTGCT | 0.997 ± 0.028 |
| AGGGGGTTCT | 1.017 ± 0.0056 |
| AGGGGGTTT | 1.02 ± 0.024 |

| Sequence | switch fluorescence ratio |
| --- | --- |
| AGGGGTAACT | 0.996 ± 0.031 |
| AGGGGTACAT | 1.01 ± 0.033 |
| AGGGGTACGC | 0.95 ± 0.091 |
| AGGGGTATTC | 1.01 ± 0.049 |
| AGGGGTGAGT | 1.02 ± 0.04 |
| AGGGGTGCCT | 0.993 ± 0.013 |
| AGGGGTGTGT | 1.01 ± 0.019 |
| AGGGGTGTT | 1.02 ± 0.016 |
| AGGGTAATTG | 0.998 ± 0.036 |
| AGGGTAGTAG | 1.015 ± 0.0063 |
| AGGGTATATC | 1.05 ± 0.03 |
| AGGGTCATTC | 0.975 ± 0.017 |
| AGGGTCCGAG | 1.001 ± 0.0045 |
| AGGGTCCTAC | 1.02 ± 0.047 |
| AGGGTCGCTG | 1.016 ± 0.0011 |
| AGGGTCGGAC | 1.01 ± 0.012 |
| AGGGTCTGAG | 1.01 ± 0.026 |
| AGGGTCTTTA | 0.999 ± 0.012 |
| AGGGTGAGCG | 0.997 ± 0.022 |
